Data taken from US20140087995A1 (published 2014).
Numbered stars: 1 amine (or outer) side, 2 acyl side, 3 side chain; on linkers, the order of the positions; unused ones are H or OH. Bridge positions count the residues as written; N and C are the ends. Side chains are listed from the residue outwards. Ends that are not written are not given here. * marks the point of attachment. C20 diacid = O=C(O)CCCCCCCCCCCCCCCCCCC(=O)*; γGlu = O=C(O)[C@H](CCC(=O)[*:2])N[*:1]; AEEA = NCCOCCOCC(=O)O

T1: rat amylin receptor (rat calcitonin receptor + rat RAMP 3) (rat, UniProt P32214 25-516; Q9JJ73 23-147)
T1 construct: whole, on cells; Membranes of transiently transfected BHK tk'ts 13 cells (Assay VI); also called rAmylin-R; rat amylin 3(a) receptor
T1 sequence (looked up) 1: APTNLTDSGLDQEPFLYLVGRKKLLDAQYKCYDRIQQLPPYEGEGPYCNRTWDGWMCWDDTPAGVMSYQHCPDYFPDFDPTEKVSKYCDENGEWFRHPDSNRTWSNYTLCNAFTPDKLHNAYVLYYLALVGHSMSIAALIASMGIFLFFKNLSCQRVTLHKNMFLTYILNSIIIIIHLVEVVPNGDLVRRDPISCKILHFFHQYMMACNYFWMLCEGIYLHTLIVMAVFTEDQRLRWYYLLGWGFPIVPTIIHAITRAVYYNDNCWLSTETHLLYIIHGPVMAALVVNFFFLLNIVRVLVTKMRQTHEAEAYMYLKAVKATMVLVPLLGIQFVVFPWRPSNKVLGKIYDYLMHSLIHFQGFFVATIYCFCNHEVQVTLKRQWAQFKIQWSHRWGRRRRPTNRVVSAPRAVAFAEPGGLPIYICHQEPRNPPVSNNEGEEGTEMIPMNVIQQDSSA
T1 sequence (looked up) 2: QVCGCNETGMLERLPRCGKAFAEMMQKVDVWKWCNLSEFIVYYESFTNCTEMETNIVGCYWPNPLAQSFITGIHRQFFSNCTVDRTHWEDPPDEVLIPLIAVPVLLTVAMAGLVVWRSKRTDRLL

T2: rat calcitonin receptor (rat, UniProt P32214 25-516)
T2 construct: whole, on cells; Membranes of transiently transfected BHK tk'ts 13 cells (Assay VIII); also called rCTR
T2 sequence (looked up): T1 sequence (looked up) 1

T3: human calcitonin receptor (human, UniProt P30988 25-474)
T3 construct: whole, on cells; Membranes of a stably transfected BHK cell line (Assay VII); also called hCTR; hCT
T3 sequence (looked up): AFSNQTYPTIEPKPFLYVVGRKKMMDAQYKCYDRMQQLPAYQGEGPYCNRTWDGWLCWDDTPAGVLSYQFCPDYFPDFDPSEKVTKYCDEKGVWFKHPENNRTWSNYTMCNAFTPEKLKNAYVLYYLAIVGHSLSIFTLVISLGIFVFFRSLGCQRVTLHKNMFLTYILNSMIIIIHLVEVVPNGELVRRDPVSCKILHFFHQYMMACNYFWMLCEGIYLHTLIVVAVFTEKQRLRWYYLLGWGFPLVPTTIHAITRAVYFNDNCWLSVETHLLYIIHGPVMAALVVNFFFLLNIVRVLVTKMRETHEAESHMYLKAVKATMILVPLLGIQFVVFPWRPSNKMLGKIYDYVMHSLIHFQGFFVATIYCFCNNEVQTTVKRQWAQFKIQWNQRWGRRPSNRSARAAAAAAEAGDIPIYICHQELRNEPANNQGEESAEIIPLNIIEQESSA

B1: N^ε1-[2-[2-[2-[[2-[2-[2-[[(4S)-4-carboxy-4-(19-carboxynonadecanoylamino)butanoyl]amino]ethoxy]ethoxy]acetyl]amino]ethoxy]ethoxy]acetyl]-[Arg17,Pro21,Pro27,His34 … (peptide)
peptide: K([AEEA-AEEA-γGlu-C20 diacid])CNTATCATQRLANFLRHSSPNFGAIPSSTNVGHNTY-NH2
modifications: disulfide 2-7; N-terminus assumed
SMILES: CC[C@H](C)[C@H](NC(=O)[C@H](C)NC(=O)CNC(=O)[C@H](Cc1ccccc1)NC(=O)[C@H](CC(N)=O)NC(=O)[C@@H]1CCCN1C(=O)[C@H](CO)NC(=O)[C@H](CO)NC(=O)[C@H](Cc1c[nH]cn1)NC(=O)[C@H](CCCNC(=N)N)NC(=O)[C@H](CC(C)C)NC(=O)[C@H](Cc1ccccc1)NC(=O)[C@H](CC(N)=O)NC(=O)[C@H](C)NC(=O)[C@H](CC(C)C)NC(=O)[C@H](CCCNC(=N)N)NC(=O)[C@H](CCC(N)=O)NC(=O)[C@@H](NC(=O)[C@H](C)NC(=O)[C@@H]1CSSC[C@H](NC(=O)[C@@H](N)CCCCNC(=O)COCCOCCNC(=O)COCCOCCNC(=O)CC[C@H](NC(=O)CCCCCCCCCCCCCCCCCCC(=O)O)C(=O)O)C(=O)N[C@@H](CC(N)=O)C(=O)N[C@@H]([C@@H](C)O)C(=O)N[C@@H](C)C(=O)N[C@@H]([C@@H](C)O)C(=O)N1)[C@@H](C)O)C(=O)N1CCC[C@H]1C(=O)N[C@@H](CO)C(=O)N[C@@H](CO)C(=O)N[C@H](C(=O)N[C@@H](CC(N)=O)C(=O)N[C@H](C(=O)NCC(=O)N[C@@H](Cc1c[nH]cn1)C(=O)N[C@@H](CC(N)=O)C(=O)N[C@H](C(=O)N[C@@H](Cc1ccc(O)cc1)C(N)=O)[C@@H](C)O)C(C)C)[C@@H](C)O
notes: also called compound 97
B2: N^ε1-[2-[2-[2-[[2-[2-[2-[[(4S)-4-carboxy-4-(19-carboxynonadecanoylamino)butanoyl]amino]ethoxy]ethoxy]acetyl]amino]ethoxy]ethoxy]acetyl]-[Arg17,Pro21,Pro27,Pro31 … (peptide)
peptide: K([AEEA-AEEA-γGlu-C20 diacid])CNTATCATQRLANFLRHSSPNFGAIPSSTPVGSNTY-NH2
modifications: disulfide 2-7; N-terminus assumed
SMILES: CC[C@H](C)[C@H](NC(=O)[C@H](C)NC(=O)CNC(=O)[C@H](Cc1ccccc1)NC(=O)[C@H](CC(N)=O)NC(=O)[C@@H]1CCCN1C(=O)[C@H](CO)NC(=O)[C@H](CO)NC(=O)[C@H](Cc1c[nH]cn1)NC(=O)[C@H](CCCNC(=N)N)NC(=O)[C@H](CC(C)C)NC(=O)[C@H](Cc1ccccc1)NC(=O)[C@H](CC(N)=O)NC(=O)[C@H](C)NC(=O)[C@H](CC(C)C)NC(=O)[C@H](CCCNC(=N)N)NC(=O)[C@H](CCC(N)=O)NC(=O)[C@@H](NC(=O)[C@H](C)NC(=O)[C@@H]1CSSC[C@H](NC(=O)[C@@H](N)CCCCNC(=O)COCCOCCNC(=O)COCCOCCNC(=O)CC[C@H](NC(=O)CCCCCCCCCCCCCCCCCCC(=O)O)C(=O)O)C(=O)N[C@@H](CC(N)=O)C(=O)N[C@@H]([C@@H](C)O)C(=O)N[C@@H](C)C(=O)N[C@@H]([C@@H](C)O)C(=O)N1)[C@@H](C)O)C(=O)N1CCC[C@H]1C(=O)N[C@@H](CO)C(=O)N[C@@H](CO)C(=O)N[C@H](C(=O)N1CCC[C@H]1C(=O)N[C@H](C(=O)NCC(=O)N[C@@H](CO)C(=O)N[C@@H](CC(N)=O)C(=O)N[C@H](C(=O)N[C@@H](Cc1ccc(O)cc1)C(N)=O)[C@@H](C)O)C(C)C)[C@@H](C)O
notes: also called compound 96
B3: N^ε1-[2-[2-[2-[[2-[2-[2-[[(4S)-4-carboxy-4-(19-carboxynonadecanoylamino)butanoyl]amino]ethoxy]ethoxy]acetyl]amino]ethoxy]ethoxy]acetyl]-[Arg17,Pro21,Pro27,Pro34 … (peptide)
peptide: K([AEEA-AEEA-γGlu-C20 diacid])CNTATCATQRLANFLRHSSPNFGAIPSSTNVGPNTY-NH2
modifications: disulfide 2-7; N-terminus assumed
SMILES: CC[C@H](C)[C@H](NC(=O)[C@H](C)NC(=O)CNC(=O)[C@H](Cc1ccccc1)NC(=O)[C@H](CC(N)=O)NC(=O)[C@@H]1CCCN1C(=O)[C@H](CO)NC(=O)[C@H](CO)NC(=O)[C@H](Cc1c[nH]cn1)NC(=O)[C@H](CCCNC(=N)N)NC(=O)[C@H](CC(C)C)NC(=O)[C@H](Cc1ccccc1)NC(=O)[C@H](CC(N)=O)NC(=O)[C@H](C)NC(=O)[C@H](CC(C)C)NC(=O)[C@H](CCCNC(=N)N)NC(=O)[C@H](CCC(N)=O)NC(=O)[C@@H](NC(=O)[C@H](C)NC(=O)[C@@H]1CSSC[C@H](NC(=O)[C@@H](N)CCCCNC(=O)COCCOCCNC(=O)COCCOCCNC(=O)CC[C@H](NC(=O)CCCCCCCCCCCCCCCCCCC(=O)O)C(=O)O)C(=O)N[C@@H](CC(N)=O)C(=O)N[C@@H]([C@@H](C)O)C(=O)N[C@@H](C)C(=O)N[C@@H]([C@@H](C)O)C(=O)N1)[C@@H](C)O)C(=O)N1CCC[C@H]1C(=O)N[C@@H](CO)C(=O)N[C@@H](CO)C(=O)N[C@H](C(=O)N[C@@H](CC(N)=O)C(=O)N[C@H](C(=O)NCC(=O)N1CCC[C@H]1C(=O)N[C@@H](CC(N)=O)C(=O)N[C@H](C(=O)N[C@@H](Cc1ccc(O)cc1)C(N)=O)[C@@H](C)O)C(C)C)[C@@H](C)O
notes: also called compound 98
B4: N^ε1-[2-[2-[2-[[(4S)-4-carboxy-4-(19-carboxynonadecanoylamino)butanoyl]amino]ethoxy]ethoxy]acetyl]-[His14,Arg17,Pro21,Pro27,Arg34]-h-amylin (peptide)
peptide: K([AEEA-γGlu-C20 diacid])CNTATCATQRLAHFLRHSSPNFGAIPSSTNVGRNTY-NH2
modifications: disulfide 2-7; N-terminus assumed
SMILES: CC[C@H](C)[C@H](NC(=O)[C@H](C)NC(=O)CNC(=O)[C@H](Cc1ccccc1)NC(=O)[C@H](CC(N)=O)NC(=O)[C@@H]1CCCN1C(=O)[C@H](CO)NC(=O)[C@H](CO)NC(=O)[C@H](Cc1c[nH]cn1)NC(=O)[C@H](CCCNC(=N)N)NC(=O)[C@H](CC(C)C)NC(=O)[C@H](Cc1ccccc1)NC(=O)[C@H](Cc1c[nH]cn1)NC(=O)[C@H](C)NC(=O)[C@H](CC(C)C)NC(=O)[C@H](CCCNC(=N)N)NC(=O)[C@H](CCC(N)=O)NC(=O)[C@@H](NC(=O)[C@H](C)NC(=O)[C@@H]1CSSC[C@H](NC(=O)[C@@H](N)CCCCNC(=O)COCCOCCNC(=O)CC[C@H](NC(=O)CCCCCCCCCCCCCCCCCCC(=O)O)C(=O)O)C(=O)N[C@@H](CC(N)=O)C(=O)N[C@@H]([C@@H](C)O)C(=O)N[C@@H](C)C(=O)N[C@@H]([C@@H](C)O)C(=O)N1)[C@@H](C)O)C(=O)N1CCC[C@H]1C(=O)N[C@@H](CO)C(=O)N[C@@H](CO)C(=O)N[C@H](C(=O)N[C@@H](CC(N)=O)C(=O)N[C@H](C(=O)NCC(=O)N[C@@H](CCCNC(=N)N)C(=O)N[C@@H](CC(N)=O)C(=O)N[C@H](C(=O)N[C@@H](Cc1ccc(O)cc1)C(N)=O)[C@@H](C)O)C(C)C)[C@@H](C)O
notes: also called compound 84

The binders below were run against T1, rat amylin receptor (rat calcitonin …) (assay: SPA competition with 125I-rat amylin, membranes of BHK cells with rat calcitonin receptor + rat RAMP3 (Assay VI)).

Binder	IC50 [nM]
B1	2.24
B2	0.529
B3	0.137
B4	5.05

Each binder was assayed against T2, rat calcitonin receptor (assay: SPA competition with 125I-calcitonin, membranes of BHK cells with rat calcitonin receptor (Assay VIII)).

Binder	IC50 [nM]
B1	159
B2	62.2
B3	24.1
B4	477

The binders below were run against T2, rat calcitonin receptor (assay: ratio IC50 rat calcitonin receptor / IC50 rat amylin receptor (reference)).

Binder	Ratio rCT/rAmylin binding
B1	71.1
B2	118
B3	176
B4	94.3

These binders were tested against T3, human calcitonin receptor (assay: ratio IC50 human calcitonin receptor / IC50 human amylin receptor (reference)).
Experimental: The resulting pellet was resuspended, homogenized and centrifuged (20.000 rpm, 15 min) in a buffer containing 20 mM Na-HEPES and 0.1 mM EDTA (pH 7.4, buffer 2). The resulting pellet was resuspended in buffer 2 and protein concentration was measured (BCA protein Assay, Pierce). The homogenate was kept cold during the whole procedure. The membranes were kept at −80° C. until use. The assay was performed in a 384 well Optiplate (PerkinElmer) in a total volume of 40 ul. Membranes were mixed with SPA beads. Final concentration of membranes 35 ng/μL final and SPA beads was 0.05 mg/well. Test-compounds were dissolved in DMSO and further diluted in assay buffer (50 mM Hepes, pH 7.4, 1 mM CaCl2, 5 mM MgCl₂, 0.1% OA and 0.02% Tween20). […] The final mixture was incubated with shaking at 400 rpm for 120 min at 25° C. prior to centrifugation (1500 rpm, 10 min). Samples were analyzed on TopCounter™ (Packard). The IC₅₀ was calculated using (one site binding competition analysis) GraphPad Prism5 as a measure of receptor affinity.
Membranes were prepared in the following way; the cells were rinsed with PBS and incubated with Versene for approximately 5 min before harvesting. The cells were flushed with PBS and the cell-suspension was centrifuged for 5 min at 1000 rpm. Cells were homogenized (Ultrathurrax) in a buffer containing 20 mM Na-HEPES and 10 mM EDTA (pH 7.4) and centrifuged at 20.000 rpm for 15 min. The resulting pellet was resuspended, homogenized and centrifuged (20.000 rpm, 15 min) in a buffer containing 20 mM Na-HEPES and 0.1 mM EDTA (pH 7.4, buffer 2). The resulting pellet was resuspended in buffer 2 and protein concentration was measured (BCA protein Assay, Pierce). The homogenate was kept cold during the whole procedure. The membranes were kept at −80° C. until use. Assay was performed in a 384 well Optiplate (PerkinElmer) in a total volume of 40 ul. Membranes were mixed with SPA beads.

Binder	Ratio hCT/hAmylin binding
B1	104
B2	79.6
B3	74.1
B4	120
